Measurements reported in PMC3901395 (2013).
Like-named read-outs stand apart in the source and are kept apart here.

B1: RNF4-SIM domain SIM4 mutant (domain or fragment)
chain: MSTRKRRGGAINSRQAQKRTREATSTPEISLEAEPIELVETAGDEIVDLTCESLEPVVVDLTHNDSAAAADERRRPRRNARRLPQDHADSCVVSSDDEELSRDRDVYVTTHTPRNARDEGATGLR
B2: RNF4-SIM domain SIM1/4 double mutant (domain or fragment)
chain: MSTRKRRGGAINSRQAQKRTREATSTPEISLEAEPAAAAETAGDEIVDLTCESLEPVVVDLTHNDSAAAADERRRPRRNARRLPQDHADSCVVSSDDEELSRDRDVYVTTHTPRNARDEGATGLR
B3: RNF4 1–125 (RNF4-SIM domain, wt) (domain or fragment)
chain: MSTRKRRGGAINSRQAQKRTREATSTPEISLEAEPIELVETAGDEIVDLTCESLEPVVVDLTHNDSVVIVDERRRPRRNARRLPQDHADSCVVSSDDEELSRDRDVYVTTHTPRNARDEGATGLR
B4: RNF4-SIM domain SIM1/2 double mutant (domain or fragment)
chain: MSTRKRRGGAINSRQAQKRTREATSTPEISLEAEPAAAAETAGDEIAAAACESLEPVVVDLTHNDSVVIVDERRRPRRNARRLPQDHADSCVVSSDDEELSRDRDVYVTTHTPRNARDEGATGLR
B5: RNF4-SIM1/2 peptide (peptide)
chain: EAEPIELVETAGDEIVDLTCESL
modifications: exact peptide ends are only in Figure 2A; limits taken as SIM1 and SIM2 (IELV, VDLT) plus short flanks; end groups unknown
B6: full-length RNF4 (natural protein)
chain: MSTRKRRGGAINSRQAQKRTREATSTPEISLEAEPIELVETAGDEIVDLTCESLEPVVVDLTHNDSVVIVDERRRPRRNARRLPQDHADSCVVSSDDEELSRDRDVYVTTHTPRNARDEGATGLRPSGTVSCPICMDGYSEIVQNGRLIVSTECGHVFCSQCLRDSLKNANTCPTCRKKINHKRYHPIYI
B7: RNF4-SIM2/3 peptide (peptide)
chain: GDEIVDLTCESLEPVVVDLTHND
modifications: exact peptide ends are only in Figure 2A; limits taken as SIM2 and SIM3 (VDLT, VDLT) plus short flanks; end groups unknown
B8: RNF4-SIM3/4 peptide (peptide)
chain: LEPVVVDLTHNDSVVIVDERR
modifications: exact peptide ends are only in Figure 2A; limits taken as SIM3 and SIM4 (VDLT, VVIV) plus short flanks; end groups unknown

Key:
Test in all cases: ITC
[1] = target: T1, linear di-SUMO2 (2×SUMO2-ΔN11) (UniProt P61956 12-95; P61956 12-95)
[2] = target: T2, mono-SUMO2 (UniProt P61956 12-93)
[3] = target: mono-SUMO1 (UniProt P63165 16-97)
[4] = target: T3, linear tetra-SUMO2 (4×SUMO2-ΔN11) (UniProt P61956 12-95; P61956 12-95; P61956 12-95; P61956 12-95)
[5] = target: T2, mono-SUMO2; remark: listed apart in the source
[6] = target: T1, linear di-SUMO2 (2×SUMO2-ΔN11); remark: listed apart in the source
[7] = target: T3, linear tetra-SUMO2 (4×SUMO2-ΔN11); remark: listed apart in the source
[8] = target: linear tri-SUMO (UniProt P61956 12-95; P61956 12-95; P61956 12-95)
Sequence of linear tri-SUMO (P61956 other isoform, or with tags, fused parts or gaps): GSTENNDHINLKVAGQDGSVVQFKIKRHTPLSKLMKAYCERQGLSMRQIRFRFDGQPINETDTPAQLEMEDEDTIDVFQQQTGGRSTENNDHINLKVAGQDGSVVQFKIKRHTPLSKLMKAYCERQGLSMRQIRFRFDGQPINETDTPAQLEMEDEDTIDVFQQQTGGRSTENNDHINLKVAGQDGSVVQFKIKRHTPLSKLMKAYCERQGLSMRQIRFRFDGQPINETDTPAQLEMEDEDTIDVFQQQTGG

T1 sequence (P61956 other isoform, or with tags, fused parts or gaps mutant): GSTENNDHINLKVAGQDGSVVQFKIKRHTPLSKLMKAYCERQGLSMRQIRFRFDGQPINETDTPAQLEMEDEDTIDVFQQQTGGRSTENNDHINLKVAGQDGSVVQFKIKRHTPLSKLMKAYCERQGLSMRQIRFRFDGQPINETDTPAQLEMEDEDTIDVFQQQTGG
T2 sequence (P61956 12-93): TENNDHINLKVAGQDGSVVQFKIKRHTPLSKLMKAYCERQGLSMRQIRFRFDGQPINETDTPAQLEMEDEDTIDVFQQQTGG
T3 sequence (P61956 other isoform, or with tags, fused parts or gaps mutant): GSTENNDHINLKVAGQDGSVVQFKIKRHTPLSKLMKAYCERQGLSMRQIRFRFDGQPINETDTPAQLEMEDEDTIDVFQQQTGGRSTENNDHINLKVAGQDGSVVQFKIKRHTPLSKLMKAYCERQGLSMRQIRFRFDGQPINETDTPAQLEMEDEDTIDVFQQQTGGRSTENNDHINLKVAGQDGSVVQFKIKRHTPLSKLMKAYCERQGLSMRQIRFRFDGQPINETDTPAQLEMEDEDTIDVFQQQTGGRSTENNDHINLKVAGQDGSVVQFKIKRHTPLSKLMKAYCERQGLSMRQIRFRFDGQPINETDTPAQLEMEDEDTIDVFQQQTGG
Sequence of mono-SUMO1 (P63165 16-97): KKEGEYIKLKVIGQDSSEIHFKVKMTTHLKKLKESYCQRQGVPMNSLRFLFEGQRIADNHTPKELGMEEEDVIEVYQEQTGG

| Binder | Kd [1] | Kd [5] | further results |
| --- | --- | --- | --- |
| B1 | 16 µM |  |  |
| B2 | 14 µM |  |  |
| B3 |  |  | Kd [2]: 145 µM; Kd [3]: 123 µM |
| B4 |  |  | Kd [4]: 1.6 µM |
| B5 | 44 µM | 121 µM |  |
| B6 |  |  | Kd [6]: 3.5 µM; Kd [7]: 0.8 µM; Kd [8]: 1.5 µM |
| B7 |  | 106 µM |  |
| B8 | 72 µM | 61 µM |  |
